The target of series [1] is recombinant human endocan (Human active Endocan 1-165, SEQ ID NO: 1) (human) (UniProt Q9NQ30). The series can be described thus: cell-based or functional assay.
The target in series [2] is human leukocyte integrin LFA-1 (CD11a/CD18) on Jurkat cells or human NK cells (human) (UniProt P20701). Briefly: cell-based or functional assay.
In series [3] the target is T1, human leukocyte integrin LFA-1 (CD11a/CD18) on Jurkat cells or human NK cells (human, UniProt P20701 26-1170; P05107 23-769).
T1 construct: whole, on cells; also called CD11a/CD18 integrin; endocan's receptor
The series can be described thus: co-immunoprecipitation from Jurkat lysates with HI111 and mab24. As to the method:
FIG. 4B: Non glycanable endocan is co-immunoprecipitated with anti-LFA-1 mabs. Bound endocan from 20 to 40×10⁶ Jurkat cells were incubated with a mab against endocan (MEC36), mabs against LFA-1 (HI111 and mab24), and anti-CD3 mab as control antibody. Bound endocan is expressed in pg per 10⁶ cells.
Immunoprecipitation of Jurkat lysates containing endocan or non glycanated endocan S137A/E was performed as previously described in Bechard D et al (J Immunol. 2001; 167:3099-3106) using anti-CD11 a mabs HI111 (BD Biosciences), and mab24 (a generous gift of Dr Nancy Hogg from Leukocyte Adhesion Laboratory, Cancer Research UK, London Research Institute, London, UK).

For series [4], the target named is T2, recombinant human endocan (Human active Endocan 1-165, SEQ ID NO: 1).
T2 chain: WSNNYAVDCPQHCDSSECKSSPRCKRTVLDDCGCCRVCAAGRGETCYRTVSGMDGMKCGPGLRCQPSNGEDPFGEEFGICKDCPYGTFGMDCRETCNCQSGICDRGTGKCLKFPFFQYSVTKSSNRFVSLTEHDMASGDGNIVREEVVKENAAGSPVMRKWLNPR

Changes are numbered by the printed parent chain. Names and notes keep the numbering of the source.

Sequence of human leukocyte integrin LFA-1 (CD11a/CD18) on Jurkat cells or human NK cells (human) (P20701 26-1170, chain 1 of 2): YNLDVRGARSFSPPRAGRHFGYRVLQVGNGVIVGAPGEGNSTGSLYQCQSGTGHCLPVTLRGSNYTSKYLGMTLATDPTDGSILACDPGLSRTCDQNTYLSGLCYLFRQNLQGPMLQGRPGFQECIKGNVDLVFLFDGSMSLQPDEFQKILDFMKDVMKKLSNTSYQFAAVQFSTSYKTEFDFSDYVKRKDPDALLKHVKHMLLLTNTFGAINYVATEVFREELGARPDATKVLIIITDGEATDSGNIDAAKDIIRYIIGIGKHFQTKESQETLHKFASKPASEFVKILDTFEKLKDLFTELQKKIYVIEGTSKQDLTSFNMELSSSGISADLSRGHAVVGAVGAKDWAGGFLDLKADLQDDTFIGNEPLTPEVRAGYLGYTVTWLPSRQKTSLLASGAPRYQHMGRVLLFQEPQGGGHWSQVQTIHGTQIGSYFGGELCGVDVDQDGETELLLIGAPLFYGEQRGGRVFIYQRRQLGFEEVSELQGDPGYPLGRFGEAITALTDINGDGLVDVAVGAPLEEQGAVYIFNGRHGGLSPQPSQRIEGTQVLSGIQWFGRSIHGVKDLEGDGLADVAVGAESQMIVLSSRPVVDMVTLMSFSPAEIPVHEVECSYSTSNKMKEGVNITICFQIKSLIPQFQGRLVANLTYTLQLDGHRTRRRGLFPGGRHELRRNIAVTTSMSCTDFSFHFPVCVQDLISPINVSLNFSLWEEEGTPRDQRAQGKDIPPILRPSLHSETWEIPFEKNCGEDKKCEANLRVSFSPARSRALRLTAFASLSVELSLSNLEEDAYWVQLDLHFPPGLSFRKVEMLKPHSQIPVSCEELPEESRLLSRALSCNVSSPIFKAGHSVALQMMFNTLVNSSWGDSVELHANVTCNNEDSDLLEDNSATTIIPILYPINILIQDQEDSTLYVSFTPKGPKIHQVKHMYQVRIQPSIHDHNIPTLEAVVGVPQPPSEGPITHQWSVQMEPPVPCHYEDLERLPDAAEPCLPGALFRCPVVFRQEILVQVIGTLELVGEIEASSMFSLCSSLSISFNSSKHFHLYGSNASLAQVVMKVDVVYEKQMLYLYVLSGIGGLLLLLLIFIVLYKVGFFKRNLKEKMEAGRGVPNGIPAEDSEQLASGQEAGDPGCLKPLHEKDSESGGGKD
Sequence of human leukocyte integrin LFA-1 (CD11a/CD18) on Jurkat cells or human NK cells (human) (P05107 23-769, chain 2 of 2, further chain): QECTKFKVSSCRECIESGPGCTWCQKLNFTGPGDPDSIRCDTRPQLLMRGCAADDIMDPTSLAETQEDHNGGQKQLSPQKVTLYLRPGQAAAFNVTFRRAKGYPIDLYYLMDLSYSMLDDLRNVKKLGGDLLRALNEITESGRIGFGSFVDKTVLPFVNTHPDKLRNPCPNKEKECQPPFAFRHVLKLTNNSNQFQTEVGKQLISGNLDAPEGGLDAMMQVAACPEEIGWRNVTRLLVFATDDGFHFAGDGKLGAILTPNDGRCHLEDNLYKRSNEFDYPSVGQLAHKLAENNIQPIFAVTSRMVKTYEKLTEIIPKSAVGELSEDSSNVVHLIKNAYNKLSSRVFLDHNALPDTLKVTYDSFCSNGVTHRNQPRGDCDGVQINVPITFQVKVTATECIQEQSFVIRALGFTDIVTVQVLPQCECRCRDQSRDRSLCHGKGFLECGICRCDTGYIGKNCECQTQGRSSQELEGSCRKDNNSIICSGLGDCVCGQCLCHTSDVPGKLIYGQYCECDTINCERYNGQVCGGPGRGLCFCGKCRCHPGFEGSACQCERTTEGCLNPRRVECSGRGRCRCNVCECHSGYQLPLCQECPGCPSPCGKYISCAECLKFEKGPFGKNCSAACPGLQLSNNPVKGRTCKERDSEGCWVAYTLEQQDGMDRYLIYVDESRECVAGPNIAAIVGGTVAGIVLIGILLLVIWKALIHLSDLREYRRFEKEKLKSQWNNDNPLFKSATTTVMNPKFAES
T1 sequence (P20701 26-1170, chain 1 of 2): as the sequence (P20701 26-1170, chain 1 of 2) above
T1 sequence (P05107 23-769, chain 2 of 2): as the sequence (P05107 23-769, chain 2 of 2, further chain) above

Take “purified proteinase 3 (Sigma) (from UniProt P24158 28-248) (enzyme)”: in series [1], the loss of the 50 kDa band of endocan stood at 1 µg/mL. In turn, “monoclonal anti-human LFA-1 clone HI111 (antibody)” had a decrease in transendothelial migration of NK cells through TNF-stimulated HUVEC in series [2] of 82%.

B1: non glycanable endocan mutant (S137A/endocan) (ligand)
chain: T2 chain with S137A
notes: Produced in 293 cells; lacks the glycan chain; also called non glycanated endocan S137A/E
As to B1, the binding result in series [3] is reported as “binds”.

B2: purified elastase (Sigma) (protein)
chain: IVGGRRARPHAWPFMVSLQLRGGHFCGATLIAPNFVMSAAHCVANVNVRAVRVVLGAHNLSRREPTRQVFAVQRIFENGYDPVNLLNDIVILQLNGSATINANVQVAQLPAQGRRLGNGVQCLAMGWGLLGRNRGIASVLQELNVTVVTSLCRRSNVCTLVRGRQAGVCFGDSGSPLVCNGLIHGIASFVRGGCASGLYPDAFAPVAQFVNWIDSIIQ
For B2, the “minimal concentration of elastase required for near complete degradation of endocan” value in series [4] was 0.1 µg/mL.

B3: purified cathepsin G (Sigma) (protein)
chain: IIGGRESRPHSRPYMAYLQIQSPAGQSRCGGFLVREDFVLTAAHCWGSNINVTLGAHNIQRRENTQQHITARRAIRHPQYNQRTIQNDIMLLQLSRRVRRNRNVNPVALPRAQEGLRPGTLCTVAGWGRVSMRRGTDTLREVQLRVQRDRQCLRIFGSYDPRRQICVGDRRERKAAFKGDSGGPLLCNNVAHGIVSYGKSSGVPPEVFTRVSSFLPWIRTTMRS
In the case of B3, in series [4], the “minimal concentration of cathepsin G required to cleave completely endocan in 24 h” value turned out to be 0.01 µg/mL and the “reduction of the detection of MEP14-bound endocan after two hours with cathepsin G at 37° C.” value is listed as “from 70% to 100%”.
